Measurements reported in patent publication US6639060.

Molecular target: human erbB-3 protein, gp180^erbB-3 (human) (UniProt P21860)
Test: cell-based or functional assay

Chain of UniProt P21860 (P21860 20-1342): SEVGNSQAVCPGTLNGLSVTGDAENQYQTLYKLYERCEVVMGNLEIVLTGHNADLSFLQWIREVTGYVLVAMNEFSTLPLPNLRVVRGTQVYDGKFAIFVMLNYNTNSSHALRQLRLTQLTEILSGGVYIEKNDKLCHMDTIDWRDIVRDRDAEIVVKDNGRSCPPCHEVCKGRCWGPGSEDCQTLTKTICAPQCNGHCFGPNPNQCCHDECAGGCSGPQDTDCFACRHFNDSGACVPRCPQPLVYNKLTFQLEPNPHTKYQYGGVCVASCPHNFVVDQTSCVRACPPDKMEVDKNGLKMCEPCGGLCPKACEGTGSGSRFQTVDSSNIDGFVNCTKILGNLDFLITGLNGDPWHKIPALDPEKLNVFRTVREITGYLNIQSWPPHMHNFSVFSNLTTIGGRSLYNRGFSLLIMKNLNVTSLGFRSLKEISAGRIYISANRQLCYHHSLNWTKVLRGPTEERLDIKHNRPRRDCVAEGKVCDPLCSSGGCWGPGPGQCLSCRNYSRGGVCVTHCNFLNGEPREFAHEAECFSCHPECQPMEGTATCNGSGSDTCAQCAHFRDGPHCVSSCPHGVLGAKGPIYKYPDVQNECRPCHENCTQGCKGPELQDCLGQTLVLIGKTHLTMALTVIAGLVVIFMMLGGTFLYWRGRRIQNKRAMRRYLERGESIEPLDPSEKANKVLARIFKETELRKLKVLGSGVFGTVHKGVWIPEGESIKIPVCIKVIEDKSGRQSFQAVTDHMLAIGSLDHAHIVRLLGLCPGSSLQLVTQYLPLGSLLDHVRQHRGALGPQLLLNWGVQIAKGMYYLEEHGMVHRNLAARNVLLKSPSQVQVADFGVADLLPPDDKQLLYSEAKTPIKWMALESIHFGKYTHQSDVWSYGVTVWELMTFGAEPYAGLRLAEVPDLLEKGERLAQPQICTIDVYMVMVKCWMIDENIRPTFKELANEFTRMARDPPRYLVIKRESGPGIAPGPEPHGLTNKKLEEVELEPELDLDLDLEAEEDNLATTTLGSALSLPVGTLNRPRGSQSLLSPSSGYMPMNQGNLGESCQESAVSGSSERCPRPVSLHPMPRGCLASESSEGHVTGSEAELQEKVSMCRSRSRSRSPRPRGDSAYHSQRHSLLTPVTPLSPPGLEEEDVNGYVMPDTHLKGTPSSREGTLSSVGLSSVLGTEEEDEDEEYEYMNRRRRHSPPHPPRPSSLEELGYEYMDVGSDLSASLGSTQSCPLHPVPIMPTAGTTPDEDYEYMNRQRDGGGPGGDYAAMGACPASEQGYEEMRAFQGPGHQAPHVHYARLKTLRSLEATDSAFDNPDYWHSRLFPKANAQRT

Substance: EGF (epidermal growth factor) (ligand)
- soft agar colonies/10^4 cells, + EGF 20 ng/ml (- EGF: 97) (colonies/10^4 cells): 94
